This is an account of results in IntAct's records for PubMed 11163258.

B1: Platelet-activating factor acetylhydrolase IB subunit beta (Homo sapiens), P43034 (parent)
chain: MVLSQRQRDELNRAIADYLRSNGYEEAYSVFKKEAELDVNEELDKKYAGLLEKKWTSVIRLQKKVMELESKLNEAKEEFTSGGPLGQKRDPKEWIPRPPEKYALSGHRSPVTRVIFHPVFSVMVSASEDATIKVWDYETGDFERTLKGHTDSVQDISFDHSGKLLASCSADMTIKLWDFQGFECIRTMHGHDHNVSSVAIMPNGDHIVSASRDKTIKMWEVQTGYCVKTFTGHREWVRMVRPNQDGTLIASCSNDQTVRVWVVATKECKAELREHEHVVECISWAPESSYSSISEATGSETKKSGKPGPFLLSGSRDKTIKMWDVSTGMCLMTLVGHDNWVRGVLFHSGGKFILSCADDKTLRVWDYKNKRCMKTLNAHEHFVTSLDFHKTAPYVVTGSVDQTVKVWECR
partner: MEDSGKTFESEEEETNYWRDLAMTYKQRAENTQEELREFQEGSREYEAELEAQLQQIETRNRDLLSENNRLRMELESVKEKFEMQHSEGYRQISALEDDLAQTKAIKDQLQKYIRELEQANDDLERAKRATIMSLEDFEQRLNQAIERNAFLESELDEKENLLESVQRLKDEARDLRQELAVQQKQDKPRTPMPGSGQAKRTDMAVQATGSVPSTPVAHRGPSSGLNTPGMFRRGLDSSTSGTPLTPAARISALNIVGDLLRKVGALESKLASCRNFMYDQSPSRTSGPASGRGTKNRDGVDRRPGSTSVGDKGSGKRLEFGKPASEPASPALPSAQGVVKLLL

In this assay the parent is B1. The following applies: with nde1_mouse Nde1, Q9CZA6.
On to H149R, for which the “effect of a mutation on the interaction” value is given as “decreasing interaction”.
Consider S169P, for which the “effect of a mutation on the interaction” value was “decreasing interaction”.
